B1: Zinc finger protein 473 (Homo sapiens), Q8WTR7 (parent)
chain: MAEEFVTLKDVGMDFTLGDWEQLGLEQGDTFWDTALDNCQDLFLLDPPRPNLTSHPDGSEDLEPLAGGSPEATSPDVTETKNSPLMEDFFEEGFSQEIIEMLSKDGFWNSNFGEACIEDTWLDSLLGDPESLLRSDIATNGESPTECKSHELKRGLSPVSTVSTGEDSMVHNVSEKTLTPAKSKEYRGEFFSYSDHSQQDSVQEGEKPYQCSECGKSFSGSYRLTQHWITHTREKPTVHQECEQGFDRNASLSVYPKTHTGYKFYVCNEYGTTFSQSTYLWHQKTHTGEKPCKSQDSDHPPSHDTQPGEHQKTHTDSKSYNCNECGKAFTRIFHLTRHQKIHTRKRYECSKCQATFNLRKHLIQHQKTHAAKTTSECQECGKIFRHSSLLIEHQALHAGEEPYKCNERGKSFRHNSTLKIHQRVHSGEKPYKCSECGKAFHRHTHLNEHRRIHTGYRPHKCQECVRSFSRPSHLMRHQAIHTAEKPYSCAECKETFSDNNRLVQHQKMHTVKTPYECQECGERFICGSTLKCHESVHAREKQGFFVSGKILDQNPEQKEKCFKCNKCEKTFSCSKYLTQHERIHTRGVKPFECDQCGKAFGQSTRLIHHQRIHSRVRLYKWGEQGKAISSASLIKLQSFHTKEHPFKCNECGKTFSHSAHLSKHQLIHAGENPFKCSKCDRVFTQRNYLVQHERTHARKKPLVCNECGKTFRQSSCLSKHQRIHSGEKPYVCDYCGKAFGLSAELVRHQRIHTGEKPYVCQECGKAFTQSSCLSIHRRVHTGEKPYRCGECGKAFAQKANLTQHQRIHTGEKPYSCNVCGKAFVLSAHLNQHLRVHTQETLYQCQRCQKAFRCHSSLSRHQRVHNKQQYCL

Variants of: B1
Conditions: with aen_human AEN

Effect of a mutation on the interaction, with no effect:
T654I

Variants of: B1
Conditions: with gpt2l_human GPATCH2L

Effect of a mutation on the interaction, with no effect:
T654I
S59G
R223C
E309G
Y456H
S535N

Variants of: B1
Conditions: with tri41_human TRIM41, Q8WV44

Effect of a mutation on the interaction, with no effect:
T654I
S59G
R223C
E309G
Y456H
S535N

Variants of: B1
Conditions: with zn792_human ZNF792, Q3KQV3
Chain of zn792_human ZNF792, Q3KQV3 (Q3KQV3 whole entry): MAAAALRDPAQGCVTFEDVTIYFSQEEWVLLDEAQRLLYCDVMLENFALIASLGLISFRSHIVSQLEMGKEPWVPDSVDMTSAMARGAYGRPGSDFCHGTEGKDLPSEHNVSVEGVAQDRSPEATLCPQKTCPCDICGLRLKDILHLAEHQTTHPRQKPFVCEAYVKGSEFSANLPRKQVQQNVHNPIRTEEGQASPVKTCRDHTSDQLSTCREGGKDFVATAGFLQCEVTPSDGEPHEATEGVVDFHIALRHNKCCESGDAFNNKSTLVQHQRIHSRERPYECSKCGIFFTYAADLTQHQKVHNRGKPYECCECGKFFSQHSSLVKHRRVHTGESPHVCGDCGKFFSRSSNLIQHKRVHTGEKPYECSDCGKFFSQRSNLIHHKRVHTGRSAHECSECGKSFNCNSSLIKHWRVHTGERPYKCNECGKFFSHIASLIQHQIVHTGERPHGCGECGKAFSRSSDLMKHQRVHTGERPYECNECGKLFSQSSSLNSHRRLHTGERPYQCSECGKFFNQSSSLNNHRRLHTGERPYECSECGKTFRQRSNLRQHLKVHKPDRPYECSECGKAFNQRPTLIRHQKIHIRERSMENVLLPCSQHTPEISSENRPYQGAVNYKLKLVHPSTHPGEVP

Effect of a mutation on the interaction, with no effect:
T654I
S59G

Variants of: B1
Conditions: with ntf2_human NUTF2, P61970
Chain of ntf2_human NUTF2, P61970 (P61970 whole entry): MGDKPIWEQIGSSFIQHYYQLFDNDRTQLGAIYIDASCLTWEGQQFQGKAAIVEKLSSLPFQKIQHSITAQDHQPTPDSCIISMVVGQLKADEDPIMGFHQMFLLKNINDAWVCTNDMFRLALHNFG

Effect of a mutation on the interaction, with no effect:
S59G

Variants of: B1
Conditions: with aen_human AEN
Remark: another data set of the same source

Effect of a mutation on the interaction, with no effect:
S59G
R223C
E309G
Y456H
S535N

Variants of: B1
Conditions: with zn792_human ZNF792, Q3KQV3
Remark: another data set of the same source

Effect of a mutation on the interaction, with no effect:
R223C
E309G
Y456H
S535N
